Assay results taken from US20230295227A1, “COMPOUNDS FOR USE IN DIAGNOSIS AND/OR MONITORING OF FIBROSIS” (ANTAROS TRACER AB, priority 2020, published 2023).
Read-outs that look alike come from different tables or passages of the source.

Experiments:
[1] = Stability testing of peptides at pH 7.4 (PBS), HPLC Method B; assay type: physicochemical
Protocol: (§1) Analytical high performance liquid chromatography (HPLC) was performed on a Dionex UltiMate 3000 HPLC system with a Bruker amazon SL ion trap mass spectrometer and detection by UV (diode array detector, 214, 254, and 280 nm) and electrospray ionization (ESI) MS using a Penomenex Kinetex C18 column (50×3.0 mm, 2.6 μm particle size, 100 Åpore size) and a Penomenex Kinetex Biphenyl column (50×4.6 mm, 2.6 μm particle size, 100 Åpore size). A gradient of H2O/CH3CN/0.05% HCOOH was used at a flow rate of 1.5 mL/min.
Method B: Detection at 214 nm column: Penomenex Kinetex Biphenyl column (50×4.6 mm, 2.6 μm particle size, 100 Åpore size) solvent: H2O+0.05% HCOOH: CH3CN+0.05% HCOOH (flow 1.5 ml/min) […]
(§2) For stability testing, 500 μmol pure compound was dissolved in 1 mL PBS buffer (pH 7.4), or 1 mL sodium acetate buffer (pH 4.5, 100 mM). For the peptides stored in PBS, the solutions were stored for 14 days at 4° C. and 23° C. At 0 h, 1 day, 7 days and 14 days, the solutions were analyzed by HPLC (analytical HPLC Method A and Method B).
(§3) The “% Purity” at each time point is defined by the % Relative purity at time point “n” (n=1 day, 7 days, 14 days in pH 7.4 PBS and 1 day at pH 4.5 NaAc) in relation to the % Relative purity at t0 following the equation:
(§4) % Purity at tn=[(% Relative purity tn)×100)]/% Relative purity t0 […]
Samples were incubated up to 14 days at 23° C. and 4° C. and were analyzed using HPLC Method B.

[2] = Stability testing of peptides at pH 7.4 (PBS), HPLC Method A; assay type: physicochemical
Protocol: as §1
Method A: Detection at 214 nm column: Penomenex Kinetex C18 (50×3.0 mm, 2.6 μm particle size, 100 Åpore size) solvent: H2O+0.05% HCOOH: CH3CN+0.05% HCOOH (flow 1.5 ml/min) […]
as §2, §3, §4
Samples were incubated up to 14 days at 23° C. and 4° C. and were analyzed using HPLC Method A.

[3] = Stability testing of peptides at pH 4.5 (sodium acetate buffer), HPLC Method B; assay type: physicochemical
Protocol: as §1
Method B: Detection at 214 nm
For the peptides stored in sodium acetate buffer (pH 4.5, 100 mM) the solutions were analyzed by HPLC (analytical HPLC Method B) after 0 h, and 1 day incubation at 4° C. and 23° C.
as §3
% Purity at tn=[(% Relative purity tn)×100)]/% Relative purity t0
Samples were incubated for 1 day at 23° C. and 4° C. and were analyzed using HPLC Method B.

[4] = mouse, in vivo; cited from earlier work
[5] = rat, in vivo; cited from earlier work
[6] = in vivo; design: species or system Sprague Dawley rats; settings: rat
Protocol: Sprague Dawley rats (obtained from Taconic, n=22, male, healthy, weight 287±25 g) were used for ex vivo organ distribution assessment of biodistribution and dosimetry.
Five MBq of [^68Ga]Ga-1 (n=10) (corresponding to 5-10 μg) in phosphate-buffered saline (PBS, pH 7.4) was injected intravenously as a bolus to conscious rats. The animals were euthanized by a CO2—O2 mixture 10, 20, 40, 60 and 120 minutes post-injection. The radioactivity of the excised organs was measured in a gamma counter. Samples from blood, heart, lung, liver, spleen, adrenal glands, kidneys, intestines, with or without contents, muscle, testis, bone, brain, pancreas, urine bladder and bone marrow were collected. The remaining carcass was also measured in order to monitor the radioactivity elimination and recovery. The radioactivity readings were decay-corrected to the time of the injection, and the results were expressed as standardized uptake values (SUV).
The biodistribution of [^68Ga]Ga-1 ([^68Ga]Ga—NH—(CH2CH2O)2—CH2—C(O)-LRELHLNNN—OH) was carried out as described above.

[7] = male, Sprague Dawley, iv, 5 MBq, total radioactivity

Row | Molecule | % Purity after 1 day ([1]; 4° C.) [%] | % Purity after 7 days ([1]; 4° C.) [%] | % Purity after 1 day ([1]; 23° C.) [%] | % Purity after 7 days ([1]; 23° C.) [%] | % Purity after 1 day ([2]; 4° C.) [%] | % Purity after 7 days ([2]; 4° C.) [%] | % Purity after 1 day ([2]; 23° C.) [%] | % Purity after 7 days ([2]; 23° C.) [%] | % Purity after 1 day ([3]; 4° C.) [%] | % Purity after 1 day ([3]; 23° C.) [%] | other results
1 | CC(C)C[C@H](NC(=O)COCCOCCNC(=O)CN1CCN(CC(=O)O)CCN(CC(=O)O)CCN(CC(=O)O)CC1)C(=O)N[C@@H](CCCNC(=N)N)C(=O)N[C@@H](CCC(=O)O)C(=O)N[C@@H](CC(C)C)C(=O)N[C@@H](Cc1c[nH]cn1)C(=O)N[C@@H](CC(C)C)C(=O)N[C@@H](CC(N)=O)C(=O)N[C@@H](CC(N)=O)C(=O)N[C@@H](CC(N)=O)C(=O)O [Compound 1, DOTA-NH—(CH2CH2O)2—CH2—C(O)-L-R-E-L-H-L-N—N—N—OH] | 100 | >98 | >99 | >98 | >99 | >99 | >99 | >98 | >95 | >96 | % Purity after 14 days ([1]; 4° C.): >96%; % Purity after 14 days ([1]; 23° C.): >97%; % Purity after 14 days ([2]; 4° C.): >99%; % Purity after 14 days ([2]; 23° C.): >97%
2 | [^68Ga]Ga-DOTA-CBP8 [Comparative Tracer 1] |  |  |  |  |  |  |  |  |  |  | SUV Kidney [4]: 10; SUV Liver [4]: 0.4
3 | [^68Ga]Ga-NOTA-Collagelin [Comparative Tracer 2] |  |  |  |  |  |  |  |  |  |  | SUV Kidney [5]: 6.2; SUV Liver [5]: 0.5; SUV Kidney [4]: 10
4 | DOTA-L-R-E-L-H-L-N—N—N—OH [Compound 12] | >99 | >99 | >99 | >95 | >99 | >99 | >99 | >96 | >98 | >98 | 
5 | H2N-L-R-E-L-H-L-N—N—N—K(DOTA-NH—(CH2CH2O)2—CH2—C(O))—NH2 [Compound 13] | >99 | >99 | >99 | >99 | 100 | 100 | 100 | 100 | >99 | >99 | 
6 | [^68Ga]Ga-NODAGA-Collagelin [Comparative Tracer 3] |  |  |  |  |  |  |  |  |  |  | SUV Kidney [5]: 11.1; SUV Liver [5]: 0.8
7 | DOTA-NH—(CH2CH2O)2—CH2—C(O)-L-R-E-L-H—V-N—N—N—OH [Compound 6] | >99 | >99 | >99 | >99 | >99 | >99 | 100 | >99 | >99 | >99 | 
8 | CC(C)C[C@H](NC(=O)COCCOCCNC(=O)CN1CCN(CC(=O)O)CCN(CC(=O)O)CCN(CC(=O)O)CC1)C(=O)N[C@@H](CCCNC(=N)N)C(=O)N[C@@H](CCC(=O)O)C(=O)N[C@@H](CC(C)C)C(=O)N[C@@H](Cc1c[nH]cn1)C(=O)N[C@@H](CC(C)C)C(=O)N[C@@H](CC(N)=O)C(=O)N[C@@H](CC(N)=O)C(=O)N[C@@H](CC(N)=O)C(=O)O [[^68Ga]Ga-1, [^68Ga]Ga-DOTA-NH—(CH2CH2O)2—CH2—C(O)-LRELHLNNN—OH, metal not drawn] |  |  |  |  |  |  |  |  |  |  | SUV at 1 h [6, 7]: < 1 SUV; SUV at 2 h [6, 7]: 1 SUV; SUV Kidney [6]: 1.7; SUV Liver [6]: 0.7
9 | DOTA-NH—(CH2CH2O)3—CH2—C(O)-L-R-E-L-H-L-N—N—N—OH [Compound 11] | >99 | >99 | >99 | >99 | >99 | >97 | >99 | >96 | >99 | >98 | 
